Assay results as given in the supplement of paper PMC10126150.
± gives the standard deviation of the averaged measurements.
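Also: ATP exposure 15 min at 22 °C before imaging.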

The sequences below were run on ATP (assay: switch fluorescence ratio, 500 uM ATP over buffer (Cy3 cluster intensity, sum of 5 cycles each) (fold (ratio)); higher = stronger signal-on switching upon ATP binding; sequences stand for … in TCGTCGGCAGCGTCAGATGTGTATAAGAGACAGTTTTTTTTTTTTTTTTTTTTTTTTT…TC). Conditions: aptamer strand: ATP DNA aptamer (quencher-CACCTGGGGGAGTATTGCGGAGGAAGG + anchor), 100 nM annealed; ATP concentration: 500 uM.
Method in brief: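 Imaging in selection buffer was followed by imaging after 15 min with 500 uM ATP at 22 °C, for Cy3-labelled switching-strand clusters annealed to 100 nM quencher-labelled ATP aptamer on a modified Illumina MiSeq flow-cell. Five of these buffer/ATP cycles ran, separated by NaOH stripping and re-annealing. The fluorescence ratio per cluster is summed target-cycle over summed buffer-cycle Cy3 intensity, averaged per switch-domain sequence; clusters outside 100-1000 RFU were removed.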
Work on GAGGGGGCCG yielded a switch fluorescence ratio of 0.996 ± 0.034. GCGGAGACTG gave a switch fluorescence ratio of 0.962 ± 0.069. GTTGGCATTA was tested, and the switch fluorescence ratio was 1.03 ± 0.023. CGATGGGATC showed a switch fluorescence ratio of 1.13 ± 0.0074. For CGTTGAGACC, the switch fluorescence ratio was 0.995 ± 0.019. GTGTAAGTAG showed a switch fluorescence ratio of 0.997 ± 0.024. With CGGGATGTTG the switch fluorescence ratio was 1.02 ± 0.035. CTCGAAGTGG gave a switch fluorescence ratio of 0.996 ± 0.021. With CTTCGCTCGA the switch fluorescence ratio was 1.35 ± 0.07. GATTGAGCCC showed a switch fluorescence ratio of 0.971 ± 0.037. GGTCCGTAGT was tested, and the switch fluorescence ratio was 1.04 ± 0.017. For GGAGATATCA, the switch fluorescence ratio was 1.035 ± 0.0074. TGGGGG was tested, and the switch fluorescence ratio was 1 ± 0.033. GGCCTTGTG gave a switch fluorescence ratio of 0.962 ± 0.035. In the case of AATTGACTGT, the switch fluorescence ratio is reported as 1.07 ± 0.025. AAAGTGTGC was tested, and the switch fluorescence ratio was 1.07 ± 0.03. ATGTCCGTGG gave a switch fluorescence ratio of 0.99 ± 0.014. Sequence ATCAGGTGCG has a switch fluorescence ratio of 1.2924 ± 0.00069. GATGAACCTA gave a switch fluorescence ratio of 1.04 ± 0.024. In the case of GTTAAAGCAT, the switch fluorescence ratio is reported as 1.01 ± 0.03. TAGATCTGGG showed a switch fluorescence ratio of 1.002 ± 0.0072. AGGTTGTTAT gave a switch fluorescence ratio of 0.969 ± 0.013. TATGCAGTA gave a switch fluorescence ratio of 1.3 ± 0.038. CGGTTATCTA showed a switch fluorescence ratio of 1.01 ± 0.054. In the case of ATAAGTCCGG, the switch fluorescence ratio is reported as 1.03 ± 0.042. CTATTTTGGC showed a switch fluorescence ratio of 0.966 ± 0.038. TGGCGCCCTG showed a switch fluorescence ratio of 0.998 ± 0.069. With AGATGCCTTC the switch fluorescence ratio was 1.01 ± 0.029. Work on TGGCTATGCG yielded a switch fluorescence ratio of 0.969 ± 0.029. With GTCGACAGCG the switch fluorescence ratio was 1.02 ± 0.035. Work on CTATCTGTTT yielded a switch fluorescence ratio of 0.9561 ± 0.002. With TACCTGGTAC the switch fluorescence ratio was 1.056 ± 0.0043. In the case of GGGGGGTTCA, the switch fluorescence ratio is reported as 1.01 ± 0.026. For TGGTTGAAAT, the switch fluorescence ratio was 0.975 ± 0.028. With CGGGCTGTGG the switch fluorescence ratio was 0.992 ± 0.03. For CAGCGGGGCA, the switch fluorescence ratio was 1.017 ± 0.0072. With GGAGTACCGG the switch fluorescence ratio was 1.01 ± 0.049. For TACGCCTGGT, the switch fluorescence ratio was 1.034 ± 0.0071. For TGTCGCGTAT, the switch fluorescence ratio was 0.992 ± 0.013. GGGGGATTGC was tested, and the switch fluorescence ratio was 1.02 ± 0.066. TTGTTGAGTG was tested, and the switch fluorescence ratio was 0.968 ± 0.028. For GAAGCCTTGG, the switch fluorescence ratio was 1.009 ± 0.004. With GAGTAATGGT the switch fluorescence ratio was 1.04 ± 0.02. With TGGGGGTTTG the switch fluorescence ratio was 0.993 ± 0.021. GCACTCAGGC gave a switch fluorescence ratio of 0.994 ± 0.03. For GGAACTTAAG, the switch fluorescence ratio was 0.9794 ± 0.0043. With ATTTAGTATC the switch fluorescence ratio was 1.09 ± 0.14. GAAAGGTTTT showed a switch fluorescence ratio of 0.9729 ± 0.0055. AAAGGGTAGA showed a switch fluorescence ratio of 1.04 ± 0.019. ACGCGGATTG showed a switch fluorescence ratio of 1.002 ± 0.0017. For GGGTACGAG, the switch fluorescence ratio was 1.018 ± 0.01. ATTTGTTGGA was tested, and the switch fluorescence ratio was 0.989 ± 0.04. For AGGGGGGGAA, the switch fluorescence ratio was 1.01 ± 0.032. Sequence TTAGGGCTTG has a switch fluorescence ratio of 0.992 ± 0.039. TTTCTTACGC showed a switch fluorescence ratio of 1.07 ± 0.066. For CGATCATGGT, the switch fluorescence ratio was 0.994 ± 0.011. Sequence GCCGTTAACG has a switch fluorescence ratio of 0.969 ± 0.028. Work on GCGCAACTGG yielded a switch fluorescence ratio of 1.352 ± 0.0074. TGGAGAAATT was tested, and the switch fluorescence ratio was 0.952 ± 0.13. GATTAAGAAT gave a switch fluorescence ratio of 1 ± 0.027. With CGGTGAAGAA the switch fluorescence ratio was 0.989 ± 0.013. For GCATTGACGG, the switch fluorescence ratio was 1.03 ± 0.02. Sequence TTACAAGGGT has a switch fluorescence ratio of 0.973 ± 0.023. TGAATGGAGG showed a switch fluorescence ratio of 0.988 ± 0.042. Work on CTCATACCTG yielded a switch fluorescence ratio of 1.05 ± 0.021. Work on TATGTGGGGG yielded a switch fluorescence ratio of 1 ± 0.016. GGGGGAAGCC gave a switch fluorescence ratio of 0.98 ± 0.024. Sequence CTGTCGTTTC has a switch fluorescence ratio of 0.975 ± 0.044. In the case of TCGTTTGATT, the switch fluorescence ratio is reported as 1.01 ± 0.019. CGATATAGGC showed a switch fluorescence ratio of 0.959 ± 0.018. For GTTCTTTGT, the switch fluorescence ratio was 0.9894 ± 0.0093. ATATAGGCTG showed a switch fluorescence ratio of 1.01 ± 0.018. In the case of CGGCCGGTTG, the switch fluorescence ratio is reported as 1 ± 0.019. With GGTACAAGAT the switch fluorescence ratio was 1.03 ± 0.013. Work on GCTATGTTTG yielded a switch fluorescence ratio of 0.9757 ± 0.0064. For ACATGGGGGT, the switch fluorescence ratio was 1.01 ± 0.014. In the case of TAGCGGTTTC, the switch fluorescence ratio is reported as 0.9746 ± 0.005. With TCATGACGT the switch fluorescence ratio was 0.9921 ± 0.0037. With CCGTAGGTTT the switch fluorescence ratio was 1.06 ± 0.037. Sequence TATTTTCAGA has a switch fluorescence ratio of 1.04 ± 0.014. GAAATAAGGC gave a switch fluorescence ratio of 1.01 ± 0.013. GAGTGGGTTG was tested, and the switch fluorescence ratio was 0.982 ± 0.0092. For TGATCGTCTG, the switch fluorescence ratio was 1.031 ± 0.0017. TAAGGGGCTT was tested, and the switch fluorescence ratio was 0.992 ± 0.021. GGGCGTGTTG was tested, and the switch fluorescence ratio was 1.027 ± 0.01. CGAAAATGCC gave a switch fluorescence ratio of 1.02 ± 0.023. ACACTTTTTT gave a switch fluorescence ratio of 1 ± 0.055. With ATAATACGGG the switch fluorescence ratio was 1.03 ± 0.017. GAAAGTTCAG showed a switch fluorescence ratio of 1.002 ± 0.0098. Sequence CATTTGTTAG has a switch fluorescence ratio of 0.9657 ± 0.0071. Work on GGAATGGGTT yielded a switch fluorescence ratio of 1.01 ± 0.023. Sequence GCCCGGGGCT has a switch fluorescence ratio of 1.028 ± 0.0057. Sequence TTTGTGGACT has a switch fluorescence ratio of 1.01 ± 0.031. ATTGAATCAT gave a switch fluorescence ratio of 1.005 ± 0.0033. Sequence AAAGTTTTCG has a switch fluorescence ratio of 0.977 ± 0.026. Sequence CAATATTAGA has a switch fluorescence ratio of 1.02 ± 0.07. For GGCTTGGTTA, the switch fluorescence ratio was 1.02 ± 0.015. For TTGTAATTCG, the switch fluorescence ratio was 1.02 ± 0.05. Work on GTTTGGGTGA yielded a switch fluorescence ratio of 1 ± 0.026. With CGGGATGCCC the switch fluorescence ratio was 1.01 ± 0.047. For GCAGTCCGAG, the switch fluorescence ratio was 1.07 ± 0.043.
